Test results published in article PMC5023282, “A rapid fluorometric assay for the S-malonyltransacylase FabD and other sulfhydryl utilizing enzymes” (Journal of Biological Methods, 2016).

Substrate: CC(=O)SCCNC(=O)CCNC(=O)[C@H](O)C(C)(C)COP(=O)(O)OP(=O)(O)OC[C@H]1O[C@@H](n2cnc3c(N)ncnc32)[C@H](O)[C@@H]1OP(=O)(O)O
Test: CPM fluorescence detection of released CoA-SH, initial rates
Assay type: biochemical, Escherichia coli
Conditions: malonyl-ACP 80 µM (about 40% pure; table note 75 µM), 20 mM phosphate, 50 mM KCl, 1 mg/ml BSA, pH 7.0, 30°C
From the text: CPM fluorescence detection of released CoA-SH, initial rates on FabH (β-ketoacyl-ACP synthase III; keto-acylsynthase III)

B1: FabH (β-ketoacyl-ACP synthase III; keto-acylsynthase III) (Escherichia coli K-12) (protein)
chain: MYTKIIGTGSYLPEQVRTNADLEKMVDTSDEWIVTRTGIRERHIAAPNETVSTMGFEAATRAIEMAGIEKDQIGLIVVATTSATHAFPSAACQIQSMLGIKGCPAFDVAAACAGFTYALSVADQYVKSGAVKYALVVGSDVLARTCDPTDRGTIIIFGDGAGAAVLAASEEPGIISTHLHADGSYGELLTLPNADRVNPENSIHLTMAGNEVFKVAVTELAHIVDETLAANNLDRSQLDWLVPHQANLRIISATAKKLGMSMDNVVVTLDRHGNTSAASVPCALDEAVRDGRIKPGQLVLLEAFGGGFTWGSALVRF
notes: purified by anion exchange, blue sepharose and S200 columns, as described previously; no tag mentioned
Km: 60 ± 20 µM
